Molecular target: OCT4 wild-type in cells (human) (UniProt Q01860)
Experiment: cell_activity
Conditions: for binding signal: transcription activity relative to OBS1+OBS2

UniProt Q01860, sequence (Q01860 whole entry): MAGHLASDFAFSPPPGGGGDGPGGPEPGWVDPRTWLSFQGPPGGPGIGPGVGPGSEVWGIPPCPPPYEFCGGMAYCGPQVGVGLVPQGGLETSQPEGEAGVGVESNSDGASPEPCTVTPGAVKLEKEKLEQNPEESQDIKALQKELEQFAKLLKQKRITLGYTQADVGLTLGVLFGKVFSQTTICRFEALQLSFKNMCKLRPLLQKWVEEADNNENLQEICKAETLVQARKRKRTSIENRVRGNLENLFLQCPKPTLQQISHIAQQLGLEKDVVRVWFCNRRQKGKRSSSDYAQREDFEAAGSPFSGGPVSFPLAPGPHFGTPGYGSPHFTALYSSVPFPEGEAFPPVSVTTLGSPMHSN

Substance: MYC -1/-1899 promoter reporter
- activity (luciferase reporter in HEK293FT vs vector control): 24.4 fold

Substance: MYC OBS1 single-site reporter
- binding signal: 60%

Substance: MYC OBS2 single-site reporter
- binding signal: 40%

Source: US20220233554
